For this data set, the system named is MS2 coat protein. As to the kind of experiment: apparent KD of MS2 coat protein; designed switch direction (-1 OFF switch, 1 ON switch): -1; higher = weaker reporter binding. In a few lines: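 Stalled E. coli RNA polymerase transcribed designed RNA switches on Illumina chips, which were then titrated with SNAP-549-labelled MS2 coat protein, doubling from 0.7 or 1.5 nM to 3 µM. Steps lasted from 0.8–1.5 h at the lowest concentration to 10–20 min at the highest. The apparent KD is each design's median over clusters of curve-fitted normalised fluorescence.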

[1] abbreviates: input ligand: microRNA oligo, concentration not stated.
[2] abbreviates: Eterna round: R95, input ligand: microRNA oligo, concentration not stated.
Setting [3] is: Eterna round: R95, input ligand: FMN 200 uM.
The mark [4] stands for this setting: Eterna round: R95, input ligand: none.

Take “AAUAAUCAUGUAGGAUAUGCGUGGCAAAGCUAUGCAGAAGGACAUGAGGAUCACCCAUGUUCUAGCGUCUGAGAACAGAUGCUA [Mat - Exclusion NG 1 - Mod of JL - D82] (Eterna round: R96, puzzle: Exclusion NG 1)”: the “apparent KD of MS2 coat protein” value turned out to be 384 nM (input ligand: FMN 200 uM), 30.2 nM under setting [1] and 41.5 nM (input ligand: none).

Take “AAUAAUCAUGUAGGAUAUGCGUGGCAAAGCUAUGCAGAAGGACAUGAGGAUCACCCAUGUUCUAGCGUCUGAGUACAGAUGCUA [Mat - Exclusion NG 1 - Mod of JL - D81] (Eterna round: R96, puzzle: Exclusion NG 1)”: the “apparent KD of MS2 coat protein” value by setting is: (input ligand: FMN 200 uM) 399 nM; under setting [1], 32.1 nM; (input ligand: none) 47.4 nM.

As for “AAUAAUCGGGCCUUCCUAUUACAUGAGGAUCACCCAUGUCUCGAGGAUAUACCGACGCACGGUCCGUAGAAGGCGAGACCACAC [Esusbied] (Eterna round: R96, puzzle: Exclusion NG 3)”, the “apparent KD of MS2 coat protein” value by setting is: (input ligand: FMN 200 uM) 141 nM; under setting [1], 14.5 nM; (input ligand: none) 24.7 nM.

In the case of “AAUAAUGAUAAGGAUAUCACUAGCUUCGGCUAGUGAGAAGGUAUCACAUGAGGAUCACCCAUGUGUUCCAAUAA [Ex6/6-A1] (Eterna round: R97, puzzle: Exclusion 6)”, the “apparent KD of MS2 coat protein” value is 38.1 nM (input ligand: FMN 200 uM) and 18 nM (input ligand: none).

As to “AAUACAAGCUAUUGAUCCCACAUGAGGAUCACCCAUGUAGCUGGCCGUGAGACCAGCUUUACAAUAGCUCGUCUUAU [Sensor-V1 #49] (Eterna round: R97, puzzle: Sensor, turn-off variant 1)”, the “apparent KD of MS2 coat protein” value reads like this: (input ligand: FMN 200 uM) 75.2 nM; (input ligand: none) 71.3 nM.

Turning to “AAUACGUGAGGAUAUAGAUGAAGGAACUUGAGGAUCACCCAAGUGGCGUCUAGUUCCUGGCUAGAAGGCACAAAUA [Biedbe] (Eterna round: R97, puzzle: Exclusion 5)”, the “apparent KD of MS2 coat protein” value (input ligand: FMN 200 uM) is 263 nM and the “apparent KD of MS2 coat protein” value (input ligand: none) came to 326 nM.

Regarding “AAUAGUCGGUAGGAUAUCCACGGAUGACCGGCAGGAGAAGGGCCGACUUGAGGAUCACCCAAGUAUGGUCCUAA [Texeonxe] (Eterna round: R97, puzzle: Exclusion 6)”, the “apparent KD of MS2 coat protein” value runs as follows: (input ligand: FMN 200 uM) 15.9 nM; (input ligand: none) 14.5 nM.

For “AAUCCUGAAGUUAGGAUAUGAAGUAUCACUGCACUUCAGAAGGGACUUGAGGAUCACCCAAGUAGCCGUGAGGG [salish99_bmod_ex4_r4_001] (Eterna round: R97, puzzle: Brourd's mod of Exclusion 4)”, the “apparent KD of MS2 coat protein” value worked out at 161 nM (input ligand: FMN 200 uM) and 47.5 nM (input ligand: none).

On to “AAUCUGUGAGGAUAUGGUGAGUAGUGCCUGAGCGCUGCUCACCAGAAGGCACAUGAGGAUCACCCAUGUAUGAA [Mat - Exclusion 4 - Mod of JL - D3] (puzzle: Exclusion 4)”, for which the “apparent KD of MS2 coat protein” value under setting [2] turned out to be 28 nM.

With “AAUGCCGGUGUCAGGAUAUCCGGAGGGAAACCUCCGGAGAAGGGACAUGAGGAUCACCCAUGUAUGUAACCUGC [AK-MS2ROC-r4-Bmoexclusion4-6] (Eterna round: R97, puzzle: Brourd's mod of Exclusion 4)”, the “apparent KD of MS2 coat protein” value was 24.9 nM (input ligand: FMN 200 uM) and 22.2 nM (input ligand: none).

As for “AAUUAAGCAAGCAGAUCCCACAUGAGGAUCACCCAUGUGCUCGUCUUAUAAGGUACUGUGACGAGAGUCACGGUACC [Mat - Sensor, turn-off var - Eli Mod - D70] (Eterna round: R97, puzzle: Sensor, turn-off variant 1)”, the “apparent KD of MS2 coat protein” value reads like this: (input ligand: FMN 200 uM) 128 nM; (input ligand: none) 97.1 nM.

For “AAUUAAUUAAUUAAUUAAUACAUGAGGAUCACCCAUGUAAUUUAAGAUCCUUAUACAAGCUUUGAUCUCGUAAUUAA [Stov1/4-A1] (Eterna round: R97, puzzle: Sensor, turn-off variant 1)”, the “apparent KD of MS2 coat protein” value is, setting by setting: (input ligand: FMN 200 uM) 98.9 nM; (input ligand: none) 93.8 nM.

Regarding “AAUUACAAGCAAAGAUCUUACAUGAGGAUCACCCAUGUGCUCGUUUUAUAAAGUACUAUCACGAAAGUGAUAGUACA [Mat - Sensor v3 - turn-off var 1 - Eli Mod - D95] (puzzle: Sensor v3, turn-off variant 1)”, the “apparent KD of MS2 coat protein” value by setting is: under setting [3], 29.9 nM; under setting [2], 90.9 nM; under setting [4], 26.3 nM.

Take “AAUUAGCUAGGAUAUACAUGAGGAUCACCCAUGUCAGUUACAUGGCCGGGUGUAACGAGUAGAAGGAGCGCCAA [EX3 B.28] (Eterna round: R97, puzzle: Exclusion 3)”: the “apparent KD of MS2 coat protein” value was determined as 175 nM (input ligand: FMN 200 uM) and 513 nM (input ligand: none).

On to “AAUUAUUUUUGAGGAUAUCGUGGUGAAACACCACGAGAAGGCGAGAUAAACAUGAGGAUCACCCAUGUGAGCCUGAUGCUUAUG [Ex NG1 #50] (Eterna round: R96, puzzle: Exclusion NG 1)”, for which the “apparent KD of MS2 coat protein” value under setting [1] turned out to be 18.1 nM.

As for “AAUUAUUUUUGAGGAUAUGGUGGUGAAACACCACCAGAAGGCGAAAUAAACAUGAGGAUCACCCAUGUGAGCCUGAUGCUUAUG [Ex NG1 #48] (Eterna round: R96, puzzle: Exclusion NG 1)”, the “apparent KD of MS2 coat protein” value under setting [1] worked out at 19.9 nM.

In the case of “AAUUAUUUUUGAGGAUAUGGUGGUGAAACACCACCAGAAGGCGAGAUAAACAUGAGGAUCACCCAUGUGAGCCUGAUGCUUAUG [Ex NG1 #49] (Eterna round: R96, puzzle: Exclusion NG 1)”, the “apparent KD of MS2 coat protein” value is, setting by setting: (input ligand: FMN 200 uM) 29.2 nM; under setting [1], 12.6 nM; (input ligand: none) 17.2 nM.

Take “AAUUCACAUGAGGAUCACCCAUGUCAGGAUAUGGUUUCACGUUUUUCUUUGCUUGAGGCCAGAAGGGACAGCUA (puzzle: Exclusion 1)”: the “apparent KD of MS2 coat protein” value under setting [2] was found to be 54.2 nM.

With “ACAACAAGCUUUUUGAACGUAGAACAUGCAGCUCUAGAAACAUGAGGAUCACCCAUGUAAGCCAGUUAGAUAGGUGA [JR_SV3TOV2_Sub067] (puzzle: Sensor v3, turn-off variant 2)”, the “apparent KD of MS2 coat protein” value came out at 76.1 nM under setting [3], 69.1 nM under setting [2] and 89.5 nM under setting [4].

As for “ACAACAAGCUUUUUGUUCGUAGAACAUGAUGCUCUAGUCACAUGAGGAUCACCCAUGUCAGCCAGUUAGAUAGGUGA [JR_SV3TOV2_Sub064] (Eterna round: R96, puzzle: Sensor v3, turn-off variant 2)”, the “apparent KD of MS2 coat protein” value was found to be 96.7 nM (input ligand: FMN 200 uM), 133 nM under setting [1] and 86 nM (input ligand: none).

With “ACAACAAGCUUUUUGUUCGUAGAACAUGAUGCUCUAGUCACAUGAGGAUCACCCAUGUCAGCCAGUUAGAUAGGUGA [JR_SV3TOV2_Sub064] (puzzle: Sensor v3, turn-off variant 2)”, the “apparent KD of MS2 coat protein” value by setting is: under setting [3], 75.2 nM; under setting [2], 133 nM; under setting [4], 81.1 nM.

With “ACAAGCGAAAGGCUCGUCUUAUUUUUGUAGAGGUUCUAAACAUGAGGAUCACCCAUGUAGUGGCGAUGGUGGAGGUA [JR_SV3TOV2_Sub069] (puzzle: Sensor v3, turn-off variant 2)”, the “apparent KD of MS2 coat protein” value under setting [3] stood at 41.8 nM, the “apparent KD of MS2 coat protein” value under setting [2] came out at 44.2 nM and the “apparent KD of MS2 coat protein” value under setting [4] is 42.4 nM.
